Test results: ChEMBL document CHEMBL3526024, “Oral availability of cefadroxil depends on ABCC3 and ABCC4” (Drug Metab Dispos, 2012)

Key:
[1] = substrate: CC1=C(C(=O)O)N2C(=O)[C@@H](NC(=O)[C@H](N)c3ccc(O)cc3)[C@H]2SC1; assay: Activity of recombinant human ABCC1 expressed in baculovirus infected insect Sf21 cell plasma membrane vesicles assessed as transporter-mediated drug uptake by liquid scintillation counting analysis in presence of ATP; assay type: ADME
[2] = substrate: CC1=C(C(=O)O)N2C(=O)[C@@H](NC(=O)[C@H](N)c3ccc(O)cc3)[C@H]2SC1; assay: Activity of recombinant human ABCC3 expressed in baculovirus infected insect Sf21 cell plasma membrane vesicles assessed as transporter-mediated drug uptake by liquid scintillation counting analysis in presence of ATP; assay type: ADME
[3] = substrate: CC1=C(C(=O)O)N2C(=O)[C@@H](NC(=O)[C@H](N)c3ccc(O)cc3)[C@H]2SC1; assay: Activity of recombinant human ABCC4 expressed in baculovirus infected insect Sf21 cell plasma membrane vesicles assessed as transporter-mediated drug uptake by liquid scintillation counting analysis in presence of ATP; assay type: ADME
[4] = substrate: Cc1nnc(SCC2=C(C(=O)O)N3C(=O)[C@@H](NC(=O)Cn4cnnn4)[C@H]3SC2)s1; assay: (§1) Activity of recombinant human MRP4 expressed in adenovirus infected HEK293 cell plasma membrane vesicles assessed as transporter-mediated drug uptake after 2 mins by Michaelis-Menten plot analysis in presence of ATP; assay type: ADME, cell-based
[5] = substrate: CO/N=C(\C(=O)N[C@@H]1C(=O)N2C(C(=O)O)=CCS[C@H]12)c1csc(N)n1; assay: as §1; assay type: ADME, cell-based

B1: Multidrug resistance-associated protein 1 (Homo sapiens) (protein)
chain: MALRGFCSADGSDPLWDWNVTWNTSNPDFTKCFQNTVLVWVPCFYLWACFPFYFLYLSRHDRGYIQMTPLNKTKTALGFLLWIVCWADLFYSFWERSRGIFLAPVFLVSPTLLGITMLLATFLIQLERRKGVQSSGIMLTFWLVALVCALAILRSKIMTALKEDAQVDLFRDITFYVYFSLLLIQLVLSCFSDRSPLFSETIHDPNPCPESSASFLSRITFWWITGLIVRGYRQPLEGSDLWSLNKEDTSEQVVPVLVKNWKKECAKTRKQPVKVVYSSKDPAQPKESSKVDANEEVEALIVKSPQKEWNPSLFKVLYKTFGPYFLMSFFFKAIHDLMMFSGPQILKLLIKFVNDTKAPDWQGYFYTVLLFVTACLQTLVLHQYFHICFVSGMRIKTAVIGAVYRKALVITNSARKSSTVGEIVNLMSVDAQRFMDLATYINMIWSAPLQVILALYLLWLNLGPSVLAGVAVMVLMVPVNAVMAMKTKTYQVAHMKSKDNRIKLMNEILNGIKVLKLYAWELAFKDKVLAIRQEELKVLKKSAYLSAVGTFTWVCTPFLVALCTFAVYVTIDENNILDAQTAFVSLALFNILRFPLNILPMVISSIVQASVSLKRLRIFLSHEELEPDSIERRPVKDGGGTNSITVRNATFTWARSDPPTLNGITFSIPEGALVAVVGQVGCGKSSLLSALLAEMDKVEGHVAIKGSVAYVPQQAWIQNDSLRENILFGCQLEEPYYRSVIQACALLPDLEILPSGDRTEIGEKGVNLSGGQKQRVSLARAVYSNADIYLFDDPLSAVDAHVGKHIFENVIGPKGMLKNKTRILVTHSMSYLPQVDVIIVMSGGKISEMGSYQELLARDGAFAEFLRTYASTEQEQDAEENGVTGVSGPGKEAKQMENGMLVTDSAGKQLQRQLSSSSSYSGDISRHHNSTAELQKAEAKKEETWKLMEADKAQTGQVKLSVYWDYMKAIGLFISFLSIFLFMCNHVSALASNYWLSLWTDDPIVNGTQEHTKVRLSVYGALGISQGIAVFGYSMAVSIGGILASRCLHVDLLHSILRSPMSFFERTPSGNLVNRFSKELDTVDSMIPEVIKMFMGSLFNVIGACIVILLATPIAAIIIPPLGLIYFFVQRFYVASSRQLKRLESVSRSPVYSHFNETLLGVSVIRAFEEQERFIHQSDLKVDENQKAYYPSIVANRWLAVRLECVGNCIVLFAALFAVISRHSLSAGLVGLSVSYSLQVTTYLNWLVRMSSEMETNIVAVERLKEYSETEKEAPWQIQETAPPSSWPQVGRVEFRNYCLRYREDLDFVLRHINVTINGGEKVGIVGRTGAGKSSLTLGLFRINESAEGEIIIDGINIAKIGLHDLRFKITIIPQDPVLFSGSLRMNLDPFSQYSDEEVWTSLELAHLKDFVSALPDKLDHECAEGGENLSVGQRQLVCLARALLRKTKILVLDEATAAVDLETDDLIQSTIRTQFEDCTVLTIAHRLNTIMDYTRVIVLDKGEIQEYGAPSDLLQQRGLFYSMAKDAGLV
For B1, which Km [1] is on record?
Its Km is 3900 µM.

And the Vmax [1]?
Its Vmax is 0.0124 µmol/min.

B2: ATP-binding cassette sub-family C member 3 (Homo sapiens) (protein)
chain: MDALCGSGELGSKFWDSNLSVHTENPDLTPCFQNSLLAWVPCIYLWVALPCYLLYLRHHCRGYIILSHLSKLKMVLGVLLWCVSWADLFYSFHGLVHGRAPAPVFFVTPLVVGVTMLLATLLIQYERLQGVQSSGVLIIFWFLCVVCAIVPFRSKILLAKAEGEISDPFRFTTFYIHFALVLSALILACFREKPPFFSAKNVDPNPYPETSAGFLSRLFFWWFTKMAIYGYRHPLEEKDLWSLKEEDRSQMVVQQLLEAWRKQEKQTARHKASAAPGKNASGEDEVLLGARPRPRKPSFLKALLATFGSSFLISACFKLIQDLLSFINPQLLSILIRFISNPMAPSWWGFLVAGLMFLCSMMQSLILQHYYHYIFVTGVKFRTGIMGVIYRKALVITNSVKRASTVGEIVNLMSVDAQRFMDLAPFLNLLWSAPLQIILAIYFLWQNLGPSVLAGVAFMVLLIPLNGAVAVKMRAFQVKQMKLKDSRIKLMSEILNGIKVLKLYAWEPSFLKQVEGIRQGELQLLRTAAYLHTTTTFTWMCSPFLVTLITLWVYVYVDPNNVLDAEKAFVSVSLFNILRLPLNMLPQLISNLTQASVSLKRIQQFLSQEELDPQSVERKTISPGYAITIHSGTFTWAQDLPPTLHSLDIQVPKGALVAVVGPVGCGKSSLVSALLGEMEKLEGKVHMKGSVAYVPQQAWIQNCTLQENVLFGKALNPKRYQQTLEACALLADLEMLPGGDQTEIGEKGINLSGGQRQRVSLARAVYSDADIFLLDDPLSAVDSHVAKHIFDHVIGPEGVLAGKTRVLVTHGISFLPQTDFIIVLADGQVSEMGPYPALLQRNGSFANFLCNYAPDEDQGHLEDSWTALEGAEDKEALLIEDTLSNHTDLTDNDPVTYVVQKQFMRQLSALSSDGEGQGRPVPRRHLGPSEKVQVTEAKADGALTQEEKAAIGTVELSVFWDYAKAVGLCTTLAICLLYVGQSAAAIGANVWLSAWTNDAMADSRQNNTSLRLGVYAALGILQGFLVMLAAMAMAAGGIQAARVLHQALLHNKIRSPQSFFDTTPSGRILNCFSKDIYVVDEVLAPVILMLLNSFFNAISTLVVIMASTPLFTVVILPLAVLYTLVQRFYAATSRQLKRLESVSRSPIYSHFSETVTGASVIRAYNRSRDFEIISDTKVDANQRSCYPYIISNRWLSIGVEFVGNCVVLFAALFAVIGRSSLNPGLVGLSVSYSLQVTFALNWMIRMMSDLESNIVAVERVKEYSKTETEAPWVVEGSRPPEGWPPRGEVEFRNYSVRYRPGLDLVLRDLSLHVHGGEKVGIVGRTGAGKSSMTLCLFRILEAAKGEIRIDGLNVADIGLHDLRSQLTIIPQDPILFSGTLRMNLDPFGSYSEEDIWWALELSHLHTFVSSQPAGLDFQCSEGGENLSVGQRQLVCLARALLRKSRILVLDEATAAIDLETDNLIQATIRTQFDTCTVLTIAHRLNTIMDYTRVLVLDKGVVAEFDSPANLIAARGIFYGMARDAGLA
What does the source list for B2?
Km [2]: 2500 µM; Vmax [2]: 0.0006 µmol/min

B3: ATP-binding cassette sub-family C member 4 (Homo sapiens) (protein)
chain: MLPVYQEVKPNPLQDANLCSRVFFWWLNPLFKIGHKRRLEEDDMYSVLPEDRSQHLGEELQGFWDKEVLRAENDAQKPSLTRAIIKCYWKSYLVLGIFTLIEESAKVIQPIFLGKIINYFENYDPMDSVALNTAYAYATVLTFCTLILAILHHLYFYHVQCAGMRLRVAMCHMIYRKALRLSNMAMGKTTTGQIVNLLSNDVNKFDQVTVFLHFLWAGPLQAIAVTALLWMEIGISCLAGMAVLIILLPLQSCFGKLFSSLRSKTATFTDARIRTMNEVITGIRIIKMYAWEKSFSNLITNLRKKEISKILRSSCLRGMNLASFFSASKIIVFVTFTTYVLLGSVITASRVFVAVTLYGAVRLTVTLFFPSAIERVSEAIVSIRRIQTFLLLDEISQRNRQLPSDGKKMVHVQDFTAFWDKASETPTLQGLSFTVRPGELLAVVGPVGAGKSSLLSAVLGELAPSHGLVSVHGRIAYVSQQPWVFSGTLRSNILFGKKYEKERYEKVIKACALKKDLQLLEDGDLTVIGDRGTTLSGGQKARVNLARAVYQDADIYLLDDPLSAVDAEVSRHLFELCICQILHEKITILVTHQLQYLKAASQILILKDGKMVQKGTYTEFLKSGIDFGSLLKKDNEESEQPPVPGTPTLRNRTFSESSVWSQQSSRPSLKDGALESQDTENVPVTLSEENRSEGKVGFQAYKNYFRAGAHWIVFIFLILLNTAAQVAYVLQDWWLSYWANKQSMLNVTVNGGGNVTEKLDLNWYLGIYSGLTVATVLFGIARSLLVFYVLVNSSQTLHNKMFESILKAPVLFFDRNPIGRILNRFSKDIGHLDDLLPLTFLDFIQTLLQVVGVVSVAVAVIPWIAIPLVPLGIIFIFLRRYFLETSRDVKRLESTTRSPVFSHLSSSLQGLWTIRAYKAEERCQELFDAHQDLHSEAWFLFLTTSRWFAVRLDAICAMFVIIVAFGSLILAKTLDAGQVGLALSYALTLMGMFQWCVRQSAEVENMMISVERVIEYTDLEKEAPWEYQKRPPPAWPHEGVIIFDNVNFMYSPGGPLVLKHLTALIKSQEKVGIVGRTGAGKSSLISALFRLSEPEGKIWIDKILTTEIGLHDLRKKMSIIPQEPVLFTGTMRKNLDPFNEHTDEELWNALQEVQLKETIEDLPGKMDTELAESGSNFSVGQRQLVCLARAILRKNQILIIDEATANVDPRTDELIQKKIREKFAHCTVLTIAHRLNTIIDSDKIMVLDSGRLKEYDEPYVLLQNKESLFYKMVQQLGKAEAAALTETAKQVYFKRNYPHIGHTDHMVTNTSNGQPSTLTIFETAL
B3 was tested. Which Km [3] did it give?
Its Km is 250 µM.

And the Vmax [3]?
The Vmax was 0.0012 µmol/min.

What about the Km [4] of the same protein?
Its Km is 81 µM.

What about the Km [5] of the same protein?
The Km was 18 µM.
